# Test results: US20160185837A1 (AstraZeneca / MedImmune, published 2016)
# T1: rat GLP-1 receptor (rat, UniProt P32301 22-463)
# T1 sequence (looked up): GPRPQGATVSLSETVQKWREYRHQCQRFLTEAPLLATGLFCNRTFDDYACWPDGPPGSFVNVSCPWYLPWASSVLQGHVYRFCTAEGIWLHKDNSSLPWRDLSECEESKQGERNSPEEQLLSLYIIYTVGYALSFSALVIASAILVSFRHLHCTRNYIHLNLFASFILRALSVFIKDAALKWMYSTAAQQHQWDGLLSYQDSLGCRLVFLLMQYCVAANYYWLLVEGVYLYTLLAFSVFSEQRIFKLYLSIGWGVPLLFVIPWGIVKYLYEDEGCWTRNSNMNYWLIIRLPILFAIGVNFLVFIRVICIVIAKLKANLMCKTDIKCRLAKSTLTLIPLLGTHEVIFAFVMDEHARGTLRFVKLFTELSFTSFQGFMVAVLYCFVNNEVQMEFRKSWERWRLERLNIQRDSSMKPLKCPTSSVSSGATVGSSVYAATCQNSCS
# T2: mouse GLP-1 receptor (mouse, UniProt O35659 22-463)
# T2 sequence (looked up): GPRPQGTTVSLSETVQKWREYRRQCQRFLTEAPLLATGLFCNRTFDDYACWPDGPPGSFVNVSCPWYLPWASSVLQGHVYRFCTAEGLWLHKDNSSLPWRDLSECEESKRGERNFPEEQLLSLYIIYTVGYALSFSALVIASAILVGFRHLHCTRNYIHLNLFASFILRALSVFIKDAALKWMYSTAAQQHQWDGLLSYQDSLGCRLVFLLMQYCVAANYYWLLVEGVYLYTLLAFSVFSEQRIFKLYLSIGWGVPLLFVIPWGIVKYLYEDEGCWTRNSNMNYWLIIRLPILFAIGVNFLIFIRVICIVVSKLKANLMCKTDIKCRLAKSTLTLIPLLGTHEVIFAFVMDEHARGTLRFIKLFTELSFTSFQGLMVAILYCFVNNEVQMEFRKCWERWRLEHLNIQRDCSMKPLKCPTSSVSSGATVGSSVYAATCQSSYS
# T3: mouse GIP receptor (mouse, UniProt Q0P543 19-460)
# T3 sequence (looked up): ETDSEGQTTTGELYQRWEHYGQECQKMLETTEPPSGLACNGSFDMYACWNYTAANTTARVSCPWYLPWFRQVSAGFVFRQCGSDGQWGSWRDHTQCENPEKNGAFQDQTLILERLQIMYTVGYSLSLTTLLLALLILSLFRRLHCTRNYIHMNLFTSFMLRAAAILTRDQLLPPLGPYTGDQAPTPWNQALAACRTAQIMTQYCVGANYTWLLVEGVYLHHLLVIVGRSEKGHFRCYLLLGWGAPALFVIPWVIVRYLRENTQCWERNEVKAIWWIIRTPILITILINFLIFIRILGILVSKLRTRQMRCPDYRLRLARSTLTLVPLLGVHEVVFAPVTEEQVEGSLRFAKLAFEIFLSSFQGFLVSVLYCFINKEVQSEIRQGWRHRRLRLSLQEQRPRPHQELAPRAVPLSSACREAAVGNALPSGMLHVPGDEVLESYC
# T4: rat GIP receptor (rat, UniProt P43219 19-455)
# T4 sequence (looked up): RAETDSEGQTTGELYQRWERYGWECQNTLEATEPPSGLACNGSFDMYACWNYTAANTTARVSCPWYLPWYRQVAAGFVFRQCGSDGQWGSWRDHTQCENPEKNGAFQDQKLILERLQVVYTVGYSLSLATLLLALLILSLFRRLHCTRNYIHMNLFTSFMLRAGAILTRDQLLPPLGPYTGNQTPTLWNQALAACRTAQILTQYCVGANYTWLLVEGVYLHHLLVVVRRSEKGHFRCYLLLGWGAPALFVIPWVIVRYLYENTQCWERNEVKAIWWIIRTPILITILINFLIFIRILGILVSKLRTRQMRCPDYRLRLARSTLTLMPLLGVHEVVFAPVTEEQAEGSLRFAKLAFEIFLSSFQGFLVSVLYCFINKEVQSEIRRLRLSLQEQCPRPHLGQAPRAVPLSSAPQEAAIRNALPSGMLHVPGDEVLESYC
# T5: human GIP receptor (human, UniProt P48546 22-466)
# T5 sequence (looked up): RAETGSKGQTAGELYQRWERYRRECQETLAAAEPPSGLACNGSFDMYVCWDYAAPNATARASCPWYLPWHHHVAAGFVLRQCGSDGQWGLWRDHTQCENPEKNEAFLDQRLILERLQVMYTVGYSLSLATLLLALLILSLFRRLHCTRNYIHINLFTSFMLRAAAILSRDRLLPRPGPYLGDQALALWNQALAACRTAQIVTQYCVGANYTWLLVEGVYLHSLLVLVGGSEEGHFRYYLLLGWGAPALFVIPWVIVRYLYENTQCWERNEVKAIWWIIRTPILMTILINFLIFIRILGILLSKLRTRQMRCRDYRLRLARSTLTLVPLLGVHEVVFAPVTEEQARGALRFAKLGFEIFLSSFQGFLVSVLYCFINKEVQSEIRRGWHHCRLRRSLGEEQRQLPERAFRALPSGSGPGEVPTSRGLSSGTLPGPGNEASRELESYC
# Columns and labels:
# Test in all cases: cell-based or functional assay
# [1] = molecular target: T1, rat GLP-1 receptor
# [2] = molecular target: T2, mouse GLP-1 receptor
# [3] = molecular target: T3, mouse GIP receptor
# [4] = molecular target: human GLP-1 receptor (human, UniProt P43220 24-463)
# [5] = molecular target: T4, rat GIP receptor
# [6] = molecular target: human glucagon receptor (human, UniProt P47871 26-477)
# [7] = molecular target: T5, human GIP receptor
Binder,cAMP EC50 [1] [nM],cAMP EC50 [2] [nM],cAMP EC50 [3] [nM],cAMP EC50 [4] [nM],cAMP EC50 [5] [nM],cAMP EC50 [6] [nM],cAMP EC50 [7] [nM],"cAMP EC50, Batch 2 [1] [nM]","cAMP EC50, Batch 2 [2] [nM]","cAMP EC50, Batch 2 [3] [nM]","cAMP EC50, Batch 2 [4] [nM]","cAMP EC50, Batch 2 [5] [nM]","cAMP EC50, Batch 2 [6] [nM]","cAMP EC50, Batch 2 [7] [nM]"
IP087 (Fc fusion) YSEGTFTSDYSKLLEEEAVRLFIEWLLAGPAAAGGSGSTASSGSGSATGGGGAATHTCPPCPAPEF,0.11,1.2,5.7,0.28,0.17,9.6,0.0086,,,,,,,
IP325 (Fc fusion) YSEGTFTSDYSKLLEEEAVRLFIEWLVKGPGGGGGSGGGGSGGGGSGGGGSGGGGSGGGGSGGGGSGGGGSA,0.035,0.64,170,0.46,0.13,> 455,0.037,0.0519,0.488,57.2,0.16,0.154,110,0.018
IP328 (Fc fusion) YSEGTFTSDYSKLLEEEAVRLFIEWLLAGGGGGGGSGGGGSGGGGSGGGGSGGGGSGGGGSGGGGSGGGGSA,0.21,3.9,5.4,1.2,0.17,43,0.085,0.12,1.3,2.2,0.33,0.092,13,0.033
IP354 (Fc fusion) YSEGMHTSDFSKLLEEEAVRLFIEWLLAGGGGGGSGGGGSGGGGSGGGGSATHTCPPC,3.6,13,270,1.4,0.74,> 7370,0.024,,,,,,,
IP355 (Fc fusion) YSEGTHTSLFSKLLEEEAVRLFIEWLLAGGGGGGSGGGGSGGGGSGGGGSATHTCPPC,20,220,17,8.8,0.5,> 527,0.17,,,,,,,
IP300 (Fc fusion) YSEGTFTSDYSKLLEEEAVRLFIEWLLAGAPPGGGGGGGGGGGGGGGGGGGGGACPPC,0.027,0.94,0.9,0.21,0.069,21,0.013,,,,,,,
IP323 (Fc fusion) YSEGTFTSDYSKLLEEEAVRLFIEWLVKGPGGGGGSGGGGSGGGGSGGGGSGGGGSGGGGSA,0.019,0.34,65,0.2,0.082,190,0.017,,,,,,,
IP327 (Fc fusion) YSEGTFTSDYSKLLEEEAVRLFIEWLLAGGGGGGGSGGGGSGGGGSGGGGSGGGGSGGGGSA,0.032,0.7,1.2,0.25,0.028,10,0.016,,,,,,,
IP324 (Fc fusion) YSEGTFTSDYSKLLEEEAVRLFIEWLVKGPGGGGGSGGGGSGGGGSGGGGSGGGGSGGGGSGGGGSA,0.04,0.72,240,0.4,0.14,470,0.037,0.0363,0.391,67.5,0.14,0.141,120,0.016
IP322 (Fc fusion) YSEGTFTSDYSKLLEEEAVRLFIEWLVKGPGGGGGSGGGGSGGGGSGGGGSGGGGSA,0.025,0.41,8.3,0.29,0.11,260,0.026,,,,,,,
IP326 (Fc fusion) YSEGTFTSDYSKLLEEEAVRLFIEWLLAGGGGGGGSGGGGSGGGGSGGGGSGGGGSA,0.039,0.87,1.7,0.37,0.037,15,0.027,,,,,,,
